For test [1], the target named is T1, recombinant soluble human CD371 extracellular domain (His 65-Ala 265) with polyhistidine tag (human, UniProt Q5QGZ9 65-265, biotinylated in the scFv BLI measurements (site not stated)).
T1 construct: range 65-265; also called soluble CD371; recombinant CD371; not shown: polyhistidine tag
T1 sequence (looked up): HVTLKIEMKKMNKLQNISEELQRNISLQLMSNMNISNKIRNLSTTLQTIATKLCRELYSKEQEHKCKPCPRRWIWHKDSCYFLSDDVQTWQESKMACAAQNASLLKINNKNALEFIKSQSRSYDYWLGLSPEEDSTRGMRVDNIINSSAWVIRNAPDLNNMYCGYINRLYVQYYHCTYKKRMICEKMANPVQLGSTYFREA
Briefly: BLI, Fc fusion captured with anti-Fc antibody, soluble CD371 as analyte. From the text:
(§1) Affinity measurements of the B10 variants determined by biolayer interferometry by capturing the IgG and Fc fusions with anti-Fc antibody, and using soluble CD371 as analyte. For scFv affinity measurements, biotinylated CD371 was captured with streptavidin, and soluble scFv was used as analyte. […] Consistent with the flow cytometry results, the full IgG and the scFv-Fc fusions bound more strongly than the scFvs (Table 8), presumably due to their bivalent interaction, resulting in an avidity effect. Weak binding of the 1B10 scFv in the VH-VL Orientation was observed but a dissociation constant could not be calculated by any curve fit method.

For test [2], the target named is T2, human CD371 on the cell surface (OCI AML cells; HEK293 cells expressing human CD371) (human, UniProt Q5QGZ9 1-265).
T2 construct: whole, on cells; The transfected construct is not specified further; also called CD371 cells; CD371+ AML cell line OCI
T2 sequence (looked up): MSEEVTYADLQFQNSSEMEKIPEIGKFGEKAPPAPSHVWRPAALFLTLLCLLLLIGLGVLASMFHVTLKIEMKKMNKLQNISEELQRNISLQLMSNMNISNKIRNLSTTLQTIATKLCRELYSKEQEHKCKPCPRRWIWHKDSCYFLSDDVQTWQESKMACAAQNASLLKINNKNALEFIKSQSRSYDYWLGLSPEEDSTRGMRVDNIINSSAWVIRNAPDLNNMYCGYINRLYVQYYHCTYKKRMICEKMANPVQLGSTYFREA
Nature of the test: flow cytometry of monoclonal phage prep on HEK293H cells transfected with human CD371 against wild type HEK293H; detection by anti-M13 mAb and PE anti-mouse. The procedure:
Once selected, positive scFv clones are tested for their binding to CD371 (e.g., human CD371) on cell surfaces by flow cytometry. Briefly, phage clones are incubated with HEK293H cells over-expressing CD371. The cells are washed and then incubated with a M13 coat protein mAb. Cells are washed again and labeled with a PE-labeled anti-mouse Fab₂ prior to flow cytometry.

For test [3], the target named is T3, recombinant extracellular domain of murine CD371 (Thr 67-Arg 267) with polyhistidine tag (murine, UniProt Q504P2 67-267).
T3 construct: range 67-267; also called mouse homolog of CD371; not shown: polyhistidine tag
T3 sequence (looked up): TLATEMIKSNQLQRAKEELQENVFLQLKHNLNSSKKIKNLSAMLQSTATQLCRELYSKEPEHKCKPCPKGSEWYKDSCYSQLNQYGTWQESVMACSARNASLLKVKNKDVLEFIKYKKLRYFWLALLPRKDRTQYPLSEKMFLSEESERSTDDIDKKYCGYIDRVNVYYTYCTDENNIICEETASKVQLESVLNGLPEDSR
Nature of the test: phage ELISA, anti-M13 detection. As to the method: (§2) A proprietary naïve, semi-synthetic scFv phage display library was screened for antibodies that bind to the CD371 protein by using standard solid phase phage display panning techniques. Briefly, recombinant CD371 was immobilized on a polystyrene surface followed by blocking with about 5% milk and incubation with the phage library. Subsequent washing, elution and phage amplification steps were performed to complete each round of biopanning. Three rounds of panning were completed using amplified CD371 binder-enriched phage pools from the previous round of panning as input for subsequent rounds.

Test [4] addresses T1, recombinant soluble human CD371 …. Briefly: phage ELISA on human CD371, anti-M13 detection. The procedure: as §2
The target is the same in test [5]. Briefly: BLI, IgG captured with anti-Fc antibody, soluble CD371 as analyte.
Description: as §1

Test [6] has the same target. Nature of the test: BLI, biotinylated CD371 captured with streptavidin, soluble scFv as analyte.
Description: as §1

B1: B10 scFv-Fc fusion, VH-VL orientation (Fc fusion)
chain: EVQLLESGGGLVQPGGSLRLSCAASGFTFSDYQMSWVRQAPGKGLEWVSGIQGGGGSTYYADSVKGRFTISRDNSKNTLYLQMNSLRAEDTAVYYCAREMWRGDYYSGMDVWGQGTTVTVSSGGGGSGGGGSGGGSGGGGSDIVMTQSPDSLAVSLGERATINCKSSQSVLDSYNNENNLAWYQQKPGQPPKLLIYWASTRESGVPDRFSGSGSGTDFTLTISSLQAEDVAVYYCQQYTSEPITFGQGTKVEIK
notes: also called VH-VL-Fc; not shown: Fc region
As to B1, in test [1], the dissociation constant Kd worked out at 4.2 nM, the koff came to 0.000968 s⁻¹ and the kon was determined as 232000 M⁻¹ s⁻¹.

B2: B031_P1_PH1D6 monoclonal phage prep (scFv displayed on phage) (scFv, V domains shown)
VH: EVQLLESGGGLVQPGGSLRLSCAASGFTFTDYAMSWVRQAPGKGLEWVSDIDGSGGSTDYADSVKGRFTISRDNSKNTLYLQMNSLRAEDTAVYYCALELGATTVYWGQGTLVTVSS
VL: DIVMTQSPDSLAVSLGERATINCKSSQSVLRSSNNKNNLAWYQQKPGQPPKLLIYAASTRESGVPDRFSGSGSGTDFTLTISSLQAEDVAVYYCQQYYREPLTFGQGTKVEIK
notes: Tested as an scFv on M13 phage
B2: the binding result is recorded as “binds” in test [2], “no binding” in test [3] and “binds” in test [4].

B3: B031_P1_PH2E8 monoclonal phage prep (scFv displayed on phage) (scFv, V domains shown)
VH: EVQLLESGGGLVQPGGSLRLSCAASGFTFSSYAMSWVRQAPGKGLEWVSEIDGEGGYTNYADSVKGRFTISRDNSKNTLYLQMNSLRAEDTAVYYCAREGVDYDILTGYYPYGMDVWGQGTTVTVSS
VL: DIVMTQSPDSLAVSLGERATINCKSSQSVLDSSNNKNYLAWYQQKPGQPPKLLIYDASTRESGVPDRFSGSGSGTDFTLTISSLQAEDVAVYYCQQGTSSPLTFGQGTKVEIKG
notes: as for B2
Turning to B3, the binding result in test [3] is on record as “no binding”.

B4: B031_P1_PH1C3 monoclonal phage prep (scFv displayed on phage) (scFv, V domains shown)
VH: EVQLLESGGGLVQPGGSLRLSCAASGFTFTSYAMSWVRQAPGKGLEWVSGIDGSGGGTNYADSVKGRFTISRDNSKNTLYLQMNSLRAEDTAVYYCARAYYDILTGYPVDGMDVWGQGTTVTVSS
VL: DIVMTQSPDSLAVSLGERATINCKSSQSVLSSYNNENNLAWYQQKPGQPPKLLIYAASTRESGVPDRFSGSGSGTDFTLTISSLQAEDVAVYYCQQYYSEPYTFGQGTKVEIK
notes: as for B2
Regarding B4, the binding result in test [3] was “no binding”.

B5: B031_P1_PH2A11 monoclonal phage prep (scFv displayed on phage) (scFv, V domains shown)
VH: EVQLLESGGGLVQPGGSLRLSCAASGFTFTSTQMSWVRQAPGKGLEWVSEISGYGGSTYYADSVKGRFTISRDNSKNTLYLQMNSLRAEDTAVYYCAKDTEVSGDAFDIWGQGTMVTVSS
VL: EIVLTQSPGTLSLSPGERATLSCRASQSVDSSNLAWYQQKPGQAPRLLIYGASSRATGIPDRFSGSGSGTDFTLTISRLEPEDFAVYYCQQYRSWPITFGQGTKVEIK
notes: as for B2
With B5, the binding result in test [3] was “no binding”; in test [4], “binds”.

B6: B10 reformatted to human IgG1 (antibody, V domains shown)
VH: EVQLLESGGGLVQPGGSLRLSCAASGFTFSDYQMSWVRQAPGKGLEWVSGIQGGGGSTYYADSVKGRFTISRDNSKNTLYLQMNSLRAEDTAVYYCAREMWRGDYYSGMDVWGQGTTVTVSS
VL: not shown
notes: Human IgG1; also called 1B10 IgG1; B031_P1_PH1B10 IgG1
On to B6, for which, in test [5], the Kd was determined as 9.5 nM, the koff worked out at 0.00153 s⁻¹ and the kon is 160000 M⁻¹ s⁻¹.

B7: B031_P1_PH1B10 monoclonal phage prep (scFv displayed on phage) (scFv, V domains shown)
VH: B6 VH
VL: not shown
notes: Tested as an scFv on M13 phage (supernatant or phage prep)
As for B7, the binding result in test [3] is recorded as “no binding”.

B8: B031_P1_PH2E4 monoclonal phage prep (scFv displayed on phage) (scFv, V domains shown)
VH: EVQLLESGGGLVQPGGSLRLSCAASGFTFTSYYMSWVRQAPGKGLEWVSGISGSGDSTSYADSVKGRFTISRDNSKNTLYLQMNSLRAEDTAVYYCAREAGGDYDSGAFDIWGQGTMVTVSS
VL: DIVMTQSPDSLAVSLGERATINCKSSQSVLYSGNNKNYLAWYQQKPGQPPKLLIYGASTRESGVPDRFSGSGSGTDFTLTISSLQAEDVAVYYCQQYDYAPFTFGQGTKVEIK
notes: as for B2
As for B8, the binding result was “no binding” in test [3] and “binds” in test [4].

B9: B10 scFv-Fc fusion, VL-VH orientation (Fc fusion)
chain: DIVMTQSPDSLAVSLGERATINCKSSQSVLDSYNNENNLAWYQQKPGQPPKLLIYWASTRESGVPDRFSGSGSGTDFTLTISSLQAEDVAVYYCQQYTSEPITFGQGTKVEIKGGGGSGGGGSGGGSGGGGSEVQLLESGGGLVQPGGSLRLSCAASGFTFSDYQMSWVRQAPGKGLEWVSGIQGGGGSTYYADSVKGRFTISRDNSKNTLYLQMNSLRAEDTAVYYCAREMWRGDYYSGMDVWGQGTTVTVSS
notes: also called VL-VH-Fc; not shown: Fc region
For B9, in test [1], the Kd was found to be 7 nM, the off-rate (koff) was found to be 0.00206 s⁻¹ and the on-rate (kon) was 295000 M⁻¹ s⁻¹.

B10: B10 scFv in the VL-VH orientation (scFv)
scFv: B9 chain
notes: Soluble scFv; also called VL-VH scFv; 1B10 scFv VL-VH
As to B10, in test [6], the Kd amounted to 16 nM, the koff was found to be 0.00952 s⁻¹ and the kon is 599000 M⁻¹ s⁻¹.

The values above are taken from US20220195064A1 (Memorial Sloan Kettering, published 2022).
